The test deals with Rabbit GH receptor, full length, stably expressed on murine FDC-P1 cells (GH-R4 cell line) (rabbit) (UniProt P19941). Briefly: cell-based or functional assay.

The text below walks through data of patent EP2305804B1.

Values joined by “and” are separate entries in the source; they are usually repeats but may differ in a detail not shown here. Equal entries are not always repeated.

Chain of UniProt P19941 (P19941 19-638): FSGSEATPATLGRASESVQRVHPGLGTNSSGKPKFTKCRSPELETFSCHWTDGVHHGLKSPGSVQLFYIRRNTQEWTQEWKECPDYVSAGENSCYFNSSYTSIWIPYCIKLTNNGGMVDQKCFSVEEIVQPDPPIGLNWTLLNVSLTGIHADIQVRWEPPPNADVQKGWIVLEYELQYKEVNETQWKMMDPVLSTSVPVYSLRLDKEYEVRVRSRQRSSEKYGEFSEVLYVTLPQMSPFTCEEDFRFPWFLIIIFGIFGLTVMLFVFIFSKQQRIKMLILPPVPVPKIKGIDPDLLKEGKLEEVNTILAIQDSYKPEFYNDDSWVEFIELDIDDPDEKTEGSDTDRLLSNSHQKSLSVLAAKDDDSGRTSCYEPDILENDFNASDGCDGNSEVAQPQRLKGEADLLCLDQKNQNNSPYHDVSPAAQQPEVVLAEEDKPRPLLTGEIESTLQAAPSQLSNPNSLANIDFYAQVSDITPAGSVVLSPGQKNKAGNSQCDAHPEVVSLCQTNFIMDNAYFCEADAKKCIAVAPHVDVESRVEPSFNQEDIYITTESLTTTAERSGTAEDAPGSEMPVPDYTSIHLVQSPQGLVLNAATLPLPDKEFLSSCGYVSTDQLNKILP

In turn, “hGH cysteine mutein S144C (from UniProt P01241 27-217) (ligand)” showed a Mean EC50, MTS cell proliferation assay, GH-R4 cells of 1.6 ng/mL.

As for “PEG-T3C, monoPEGylated hGH cysteine mutein T3C (5 kDa maleimide-PEG) (from UniProt P01241 27-217) (ligand)”, the Mean EC50, MTS cell proliferation assay, GH-R4 cells was determined as 1.6 ng/mL and the Mean EC50 in molar units, MTS cell proliferation assay, GH-R4 cells is 0.07 nM.

For the substance “hGH cysteine mutein T148C (from UniProt P01241 27-217) (ligand)”, the EC50, individual experiment, MTS cell proliferation assay, GH-R4 cells (T148C-lotA) was 0.4 ng/mL and 0.5 ng/mL; the EC50, individual experiment, MTS cell proliferation assay, GH-R4 cells (T148C-lotB) was 1.5 ng/mL and 1.9 ng/mL and 3.1 ng/mL; the Mean EC50, MTS cell proliferation assay, GH-R4 cells (T148C-lotA) was found to be 0.5 ng/mL; the Mean EC50, MTS cell proliferation assay, GH-R4 cells (T148C-lotB) amounted to 2.5 ng/mL.

On to “PEG-S144C, monoPEGylated hGH cysteine mutein S144C (5 kDa maleimide-PEG) (from UniProt P01241 27-217) (ligand)”, for which the EC50, individual experiment, MTS cell proliferation assay, GH-R4 cells was 40 ng/mL and 45 ng/mL; the Mean EC50, MTS cell proliferation assay, GH-R4 cells was 43 ng/mL; the Mean EC50 in molar units, MTS cell proliferation assay, GH-R4 cells stood at 2 nM.

Consider “Wild-type recombinant human growth hormone (rhGH), secreted to the E. coli periplasm with the stII signal sequence (from UniProt P01241 27-217) (ligand)”, for which the EC50, individual experiment, MTS cell proliferation assay, GH-R4 cells was 0.8 ng/mL and 1.1 ng/mL; the Mean EC50, MTS cell proliferation assay, GH-R4 cells was 0.8 ng/mL.

In the case of “hGH cysteine mutein T3C, disulfide-linked homodimer (from UniProt P01241 27-217) (ligand)”, the Mean EC50, MTS cell proliferation assay, GH-R4 cells (T3C dimer) worked out at 1.4 ng/mL.
